We go through two proteins from article PMC3260166, “HspB2/Myotonic Dystrophy Protein Kinase Binding Protein (MKBP) as a Novel Molecular Chaperone: Structural and Functional Aspects” (PLoS ONE, 2012).

Series [1] deals with the molecule itself. Description: AUC; sedimentation velocity, 0.125, 1 and 3 mg/ml HspB2 in TNE buffer (50 mM Tris HCl pH 7.4, 1 mM EDTA, 100 mM NaCl), 40,000 rpm, 20°C, interference optics, SEDFIT.
Series [2] concerns the molecule itself. Description: FRET or BRET; subunit exchange: AIAS- and LYI-labelled HspB2 mixed in equimolar ratios in 20 mM HEPES pH 7.4, 100 mM NaCl, at 37°C or 20°C; excitation 332 nm. A general note: BRET reads energy transfer from a luciferase to a nearby fluorophore.

B1: human HspB2 / Myotonic Dystrophy Protein Kinase Binding Protein (MKBP) (natural protein, UniProt Q16082 1-182, looked up)
chain: MSGRSVPHAHPATAEYEFANPSRLGEQRFGEGLLPEEILTPTLYHGYYVRPRAAPAGEGSRAGASELRLSEGKFQAFLDVSHFTPDEVTVRTVDNLLEVSARHPQRLDRHGFVSREFCRTYVLPADVDPWRVRAALSHDGILNLEAPRGGRHLDTEVNEVYISLLPAPPDPEEEEEAAIVEP
notes: HspB2 (MKBP), human; The reverse primer carries the stop codon (TCA), so the C-terminal His tag of pET21a is probably not translated; also called MKBP/HspB2; source: E. coli BL21 DE3, purified (20% ammonium sulfate precipitation, Phenyl Sepharose)
B1: the binding result in series [1] is reported as “binds”.

B2: human HspB2 labelled at its sole cysteine (Cys118) with AIAS or LYI (natural protein, UniProt Q16082 1-182, looked up)
chain: MSGRSVPHAHPATAEYEFANPSRLGEQRFGEGLLPEEILTPTLYHGYYVRPRAAPAGEGSRAGASELRLSEGKFQAFLDVSHFTPDEVTVRTVDNLLEVSARHPQRLDRHGFVSREFCRTYVLPADVDPWRVRAALSHDGILNLEAPRGGRHLDTEVNEVYISLLPAPPDPEEEEEAAIVEP
modifications: cysteine at 118 covalently labelled with AIAS (4-acetamido-4'-((iodoacetyl)amino)stilbene-2,2'-disulfonic acid; donor copy) or with Lucifer Yellow Iodoacetamide (LYI; acceptor copy)
notes: HspB2 (MKBP), human; the same recombinant protein as m1, labelled at the sole cysteine residue (118th position); Two differently labelled copies of the same protein (AIAS donor, LYI acceptor) mixed in equimolar ratio for FRET; also called AIAS-labeled HspB2; LYI-labeled HspB2; source: E. coli BL21 DE3, purified, then labelled with AIAS or LYI and desalted (PD10)
Regarding B2, the binding result in series [2] is on record as “binds”.
